Measurements taken from US20210284750A1, “Immunoconjugate Synthesis Method” (priority 2017, published 2021).

Key:
[1] = test system: Human antigen presenting cells (APCs); assay: APC-tumor co-culture: myeloid activation by flow cytometry; type: cell-based; details: 18 hours; for myeloid activation: APC-tumor co-culture
Source text: (§1) Isolation of Human Antigen Presenting Cells. Human antigen presenting cells (APCs) were negatively selected from human peripheral blood mononuclear cells obtained from healthy blood donors (Stanford Blood Center) by density gradient centrifugation using a RosetteSep Human Monocyte Enrichment Cocktail (Stem Cell Technologies) containing monoclonal antibodies against CD14, CD16, CD40, CD86, CD123, and HLA-DR. Immature APCs were subsequently purified to >97% purity via negative selection using an EasySep Human Monocyte Enrichment Kit without CD16 depletion containing monoclonal antibodies against CD14, CD16, CD40, CD86, CD123, and HLA-DR.
(§2) Preparation of Tumor Cells. Tumor cells were resuspended in PBS with 0.1% fetal bovine serum (FBS) at 1 to 10×10^6 cells/mL. Cells were subsequently incubated with 2 μM CFSE to yield a final concentration of 1 μM. The reaction was ended after 2 minutes via the addition of 10 mL complete medium with 10% FBS and washed once with complete medium. Cells were either fixed in 2% paraformaldehyde and washed three times with PBS or left unfixed prior to freezing the cells in 10% DMSO, 20% FBS and 70% medium.
(§3) APC-Tumor Co-cultures. […] Cells and cell-free supernatants were analyzed after 18 hours via flow cytometry or ELISA.

[2] = test system: Human antigen presenting cells (APCs); assay: APC-tumor co-culture: cytokine secretion in cell-free supernatants (ELISA); type: cell-based; details: 18 hours
Source text: as §1, §2, §3

[3] = APCs with CFSE-labeled tumor cells, various concentrations, flow cytometry

B1: CD20 (protein, UniProt P11836 1-297, looked up)
B-lymphocyte antigen CD20: MTTPRNSVNGTFPAEPMKGPIAMQSGPKPLFRRMSSLVGPTQSFFMRESKTLGAVQIMNGLFHIALGGLLMIPAGIYAPICVTVWYPLWGGIMYIISGSLLAATEKNSRKCLVKGKMIMNSLSLFAAISGMILSIMDILNIKISHFLKMESLNFIRAHTPYINIYNCEPANPSEKNSPSTQYCYSIQSLFLGILSVMLIFAFFQELVIAGIVENEWKRTCSRPKSNIVLLSAEEKKEQTIEIKEEVVGLTETSSQPKNEEDIEIIPIQEEEEEETETNFPEPPQDQESSPIENDSSP
- myeloid activation [1]: does not
- myeloid activation ([1]; listed as unconjugated CD20 antibody): do not
- myeloid activation as indicated by CD14 downregulation [1, 3]: does not
- myeloid activation as indicated by CD16 downregulation [1, 3]: does not
- myeloid activation as indicated by CD40 upregulation [1, 3]: does not
- myeloid activation as indicated by CD86 upregulation [1, 3]: does not
- myeloid activation as indicated by CD123 upregulation [1, 3]: does not
- myeloid activation as indicated by HLA-DR upregulation [1, 3]: does not
- cytokine secretion [2]: do not
